In doi:10.1101/2022.05.13.491770 (bioRxiv, 2022):

Legend:
[1] = target: recombinant SARS-CoV-2 RBD (SARS-CoV-2, ancestral strain (assumed), UniProt P0DTC2); experiment: BLI
[2] = target: SARS-CoV-2 WA.1 spike protein (V-PLEX COVID-19 Panel 24) (SARS-CoV-2 WA.1 (ancestral), UniProt P0DTC2, strain); experiment: electrochemiluminescence multiplex binding assay

B1: 002-S21F2 full-length immunoglobulin G (IgG) (antibody, V domains shown)
VH: EVQLVQSGAEVKKPGESLKISCKASGYNFAYYWIGWVRQMPGKGLEWMGIIYPGDSDTRYSPSFQGQVTISADKSISTAYLQWSSLKASDTAMYYCARGEMTAVFGDYWGQGTLVTVSS
VL: DIQMTQSPSSLSASVGDRVTITCQASQDISNYLNWYQQKPGKAPKLLIYDASNLETGVPSRFSGSGSGTDFTLTISSLQPEDIATYYCQQYKILLTWTFGQGTKVEIK
B1: binds [1]; binds [2].
